According to patent publication US20260159585A1 (SHANGHAI HENLIUS BIOTECH, published 2026):

Key:
hCD47-His antigen [1] = molecular target: T1, hCD47-His antigen (human, UniProt Q08722 19-139, limits assumed); experiment: ELISA on coated hCD47-His, HRP anti-human Fc, OD450; plate3
T1 construct: also called human CD47; not shown: His tag

[2] = molecular target: T2, human CD47 expressed on cells (human, UniProt Q08722 19-323); experiment: FACS, whole cell binding to human primary red blood cells, FITC anti-human Fc; lower panel
T2 construct: whole, on cells; One molecule for all cell types; also called CD47 on Jurkat cells; CD47 on human red blood cells (RBCs)

[3] = molecular target: T2, human CD47 expressed on cells; experiment: FACS, whole cell binding to human primary red blood cells, FITC anti-human Fc; upper panel
hCD47-His antigen [4] = molecular target: T1, hCD47-His antigen; experiment: ELISA on coated hCD47-His, HRP anti-human Fc, OD450; plate4
hCD47-His antigen [5] = molecular target: T1, hCD47-His antigen; experiment: ELISA on coated hCD47-His, HRP anti-human Fc, OD450; plate1
hCD47-His antigen [6] = molecular target: T1, hCD47-His antigen; experiment: ELISA on coated hCD47-His, HRP anti-human Fc, OD450; plate2

EC50 (read off the curve) (hCD47-His antigen [1]): ~0.1 nM
EC50 (read off the curve) [2]: ~0.3 nM
EC50 (read off the curve) [3]: ~0.2 nM
EC50 (read off the curve) (hCD47-His antigen [4]): ~0.07 nM
EC50 (read off the curve) (hCD47-His antigen [5]): ~0.1 nM
EC50 (read off the curve) (hCD47-His antigen [6]): ~0.08 nM
B1: M1 #21 (antibody, V domains shown)
VH: QVQLQQWGAGLLKPSETLSLTCAVYGGSFSGYYWSWIRQPPGKGLEWIGEINQSGSTNYNPSLKSRVTISVDTSKNQFSLRLSSVTAADTAMYYCARFTGRPYYGMDVWGQGTTVTVSS
VL: SYELTQPPSVSATPGQRVTISCSGSESNIGSHKVKWYQQFAGAAPRLLIHGNDQRFSGVPDRFSGSKSGTSASLAISGLQSEDEADYYCAAWDDSLYGRVFGGGTKLTVL
